Test results: US8008547B2, “Glyphosate-N-acetyltransferase (GAT) genes” (E.I. duPont de Nemours, priority 2000, dated 2011)
Numbering of substitutions follows the chain as printed.

B1: SEQ ID NO:601: GAT variant polypeptide (protein)
chain: MIEVKPINAEDTYELRHRILRPNQPIEACMFESDLLRGAFHLGGYYGGKLISIASFHQAEHSELQGQKQYQLRGMATLEGYREQKAGSSLIKHAEEILRKRGADLLWCNARTSASGYYKKLGFSEQGEVFDTPPVGPHILMYKRIT
modifications: D_S00260796_17-15H3
notes: GAT variant polypeptide
B2: SEQ ID NO:816: GAT variant (protein)
chain: B1 chain with I19V, M30I, L36M, Y45F, K49R, I53V, I91V
modifications: Synthetic DNA Sequence; CDS (1)...(441); 20-8H12c
notes: GAT variant
B3: SEQ ID NO: 448: GAT polypeptide (protein)
chain: MLEVKPINAEDTYELRHKILRPNQPLEVCMYETDLLRGAFHLGGFYRGKLISIASFHQAEHSDLQGQKQYQLRGMATLEGYRDQKAGSSLIRHAEQILRKRGADMLWCNARTSASGYYKKLGFSEQGEVFETPPVGPHILMYKRLT
modifications: 0_6D10
notes: GAT polypeptide
B4: SEQ ID NO: 193: GAT gene variant (nucleic acid)
DNA: ATGCTAGAGGTGAAACCGATTAACGCAGAGGATACCTATGAACTAAGGCATAGAATACTCAGACCAAACCAGCCGATAGAAGCGTGTATGTATGAAAGCGATTTACTTCGTGGTGCATTTCACTTAGGCGGCTATTACAGGGGCAAACTGATTTCCATAGCTTCATTCCACCAGGCCGAGCACTCAGAACTCCAAGGCCAGAAACAGTACCAGCTCCGAGGTATGGCTACCTTGGAAGGTTATCGTGAGCAGAAAGCGGGATCGAGTCTAATTAAACACGCTGAAGAAATTCTTCGTAAGAGGGGGGCGGACTTGCTTTGGTGTAATGCGCGGACATCCGCCTCAGGCTACTACAAAAAGTTAGGCTTCAGCGAGCAGGGAGAGATATTTGAAACGCCGCCAGTAGGACCTCACATCCTGATGTATAAAAGGATCACATAA
modifications: Synthetic DNA Sequence; 0_5D3
notes: GAT gene variant
B5: SEQ ID NO:202: GAT variant transgene (nucleic acid)
DNA: B4 DNA with A92T, A134T, A275G, T313A, A433C
modifications: Synthetic DNA Sequence; 10_4F2
notes: GAT variant transgene
B6: SEQ ID NO: 190: evolved GAT gene (nucleic acid)
DNA: ATGATAGAGGTGAAACCGATTAACGCAGAGGATACCTATGAACTAAGGCATAAAATACTCAGACCAAACCAGCCGATAGAAGCGTGTATGTATGAAAGCGATTTACTTCGTGGTGCATTTCACTTAGGCGGCTTTTACAGGGGCAAACTGATTTCCATAGCTTCATTCCACCAGGCCGAGCACTCAGACCTCCAAGGCCAGAAACAGTACCAGCTCCGAGGTATGGCTACCTTGGAAGGTTATCGTGATCAGAAAGCGGGATCGAGTCTAATTAGACACGCTGAACAAATTCTTCGTAAGAGGGGGGCGGACTTGCTTTGGTGCAATGCGCGGACATCCGCCTCAGGCTACTACAAAAAGTTAGGCTTCAGCGAGCAGGGAGAGATATTTGATACGCCGCCAGTAGGACCTCACATCCTGATGTATAAAAGGCTCACA
modifications: Synthetic DNA Sequence; 0_5B8
notes: evolved GAT gene

What was measured:
[1] = Transfer of the propionyl group from propionyl CoA to glyphosate (DTNB); format: biochemical; settings: 1 mM propionyl CoA, 5 mM glyphosate or no glyphosate, 30 minutes
Protocol: The ability of GAT variants (B6 (SEQ ID NO:7), 0—6D10 (SEQ ID NO:448), 17-15H3 (SEQ ID NO:601), and 20-8H12 (SEQ ID NO:816)) to transfer the propionyl group from propionyl CoA to glyphosate was tested in reaction mixtures containing 5 mM glyphosate or no glyphosate. Propionyl CoA was present at 1 mM. After 30 minutes the reactions were terminated and the presence of free […] was determined by the addition of DTNB.

[2] = Standard protocol for determination of kcat and KM (continuous spectrophotometric assay, Acetyl CoA hydrolysis at 235 nm); format: biochemical; settings: purified protein; about 23° C.; 20 mM HEPES pH 6.8, 10% ethylene glycol, 0.2 mM acetyl CoA
Method in brief: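 KM from initial rates over 0.125–10 mM glyphosate, fitted by Lineweaver-Burke transformation of Michaelis-Menten; kcat/KM computed as kcat divided by KM. Continuous spectrophotometric read of acetyl-CoA hydrolysis at 235 nm.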

[3] = test system: tobacco plants; test: Herbicide spray tests of GAT expressing tobacco plants; format: in vivo, Nicotiana tabacum; settings: transgenic GAT tobacco; for plant response two weeks after glyphosate spray: 0.5, 2 or 4× glyphosate (1× = 32 oz/acre of 40% ai); for survival after second spray: 8× glyphosate dose three weeks later
Protocol: Tobacco shoots generated as described in EXAMPLE 9 were excised from the explants and transferred to basal root induction (BRI) medium composed of half-strength Murashige and Skoog (MS) medium, pH 5.7, with 1.5% sucrose, 0.3% Gelrite, 0-200 uM glyphosate and 400 ug/ml Timentin. Rooted plants and axillary shoots were clonally propagated by cutting the stem and transferring it to fresh BRI medium until the desired number of clones was obtained. Rooted plants were carefully removed from the solid medium. Prior to placing the plants into small pots of soil, the roots were washed to remove any remaining Gelrite. A protective plastic cover was kept over the plants for at least one week until the plants were well established.
To determine if GAT expressing tobacco plants could tolerate simulated field rate sprays of glyphosate, clonal lines of several events per GAT variant were tested. A typical test was set up as follows: One clone from each event was sprayed with 1 ml of solution containing the isopropylamine salt of glyphosate (Sigma P5671) and 0.125% Triton X-100, pH 6.8 such that the amount of active ingredient sprayed was equivalent to that present in commercial glyphosate products. For example, to achieve 32 oz/acre (1×) of herbicide containing 40% active ingredient (“ai”), 2.4 ul of 40% ai formulation was diluted into 1 ml water and sprayed on a plant in a 4-inch square pot (16 in^2). A mock application (0×) with surfactant only was also included. In some cases a second spray was applied 1-4 weeks later. Plants were kept in controlled growth rooms at 25° C. and 70% humidity with 16 hr light.
Seed-grown wild type plants were also sprayed. […] All 0× plants were healthy, including the non-GAT control plants. Three weeks later all of the surviving plants were sprayed with an 8× dose.

[4] = test system: soybean plants; test: Greenhouse glyphosate spray of T0 soybean plants expressing GAT transgenes (discoloration score); format: in vivo
Protocol: Soybean plants expressing GAT variant transgenes were produced using the method of particle gun bombardment (see Klein et al. (1987) Nature 327:70-73) using a DuPont Biolistic PDS1000/He instrument. The selection agent used during the transformation process was hygromycin. Either the hygromycin selectable marker gene remained in the transgenic events or the hygromycin gene was excised by methods known in the art. DNA fragments were prepared with a synthetic constitutive promoter, a GAT variant and PinII terminator. The selectable marker gene, comprising the 35S CaMV promoter, HPT gene and NOS terminator, was cobombarded with the GAT gene variant as described above. Bombarded soybean embryogenic suspension tissue was cultured for one week in the absence of selection agent. Embryogenic suspension tissue was placed in liquid selection medium for 6 weeks. Putative transgenic suspension tissue was sampled for PCR analysis to determine the presence of the GAT gene. Putative transgenic suspension culture tissue was maintained in selection medium for 3 weeks to obtain enough tissue for plant regeneration. Suspension tissue was matured for 4 weeks using standard procedures; matured somatic embryos were desiccated for 4-7 days and then placed on germination induction medium for 2-4 weeks. Germinated plantlets were transferred to soil in cell pack trays for 3 weeks for acclimatization. Plantlets were potted to 10-inch pots in the greenhouse for evaluation of glyphosate resistance.
To determine the level of glyphosate resistance of transgenic soybeans expressing the GAT variant transgenes, T0 plants were sprayed with glyphosate (Roundup ULTRA MAX™) in the greenhouse. Plant resistance levels were evaluated by […] • 7=minor leaf/stem discoloration • 5=worse leaf/stem discoloration • 3=severely discolored plant or dying plant • 1=dead plant
One to four plants were sent to the greenhouse from each independent transgenic event. An additional 1-2 plants per event were grown in controlled environment growth chambers for seed production and were not sprayed with glyphosate. The greenhouse plants were sprayed at 1×, 2× or 4× glyphosate (1× glyphosate=26 ounces/acre of RoundUp ULTRA MAX™) 3-4 weeks after transfer to soil. The T0 plant discoloration scores with 2× and 4× spray rates are shown in Table 10 and Table 11, respectively.

[5] = test system: maize plants; test: Effect of temperature variation on glyphosate tolerance of T1 maize expressing GAT transgenes; format: in vivo; settings: cool/cold, warm and hot conditions; 0×, 4×, 6×, 8× at V2; scored at 5 and 14 days
Protocol: Maize plants expressing GAT variant transgenes 10—4F2 (SEQ ID NO:202), 17-15H3 (SEQ ID NO:549), and 18-28D9b (SEQ ID NO:814) were produced using the methods described in Example 13. The effect of temperature on glyphosate tolerance was evaluated in T1 plants. The T1 plants were grown in cool/cold (day 14° C., night 8° C.), warm (day 28° C., night 20° C.), and hot (day 37° C., night 20° C.) conditions. T1 plants were sprayed at V2 with four different glyphosate spray treatments (0×, 4×, 6×, and 8×). Plants were scored at 5 and 14 days after treatment for leaf discoloration and plant height comparisons as described in Example 13.

[6] = 10 days after 2X glyphosate, count in parentheses

| Molecule | transfer of propionyl group to glyphosate [1] | plant response two weeks after glyphosate spray [3] | survival after second spray [3] | other results |
| --- | --- | --- | --- | --- |
| B1 | glyphosate-dependent hydrolysis of propionyl CoA | – | – | – |
| B2 | glyphosate-dependent hydrolysis of propionyl CoA | – | – | – |
| B3 | glyphosate-dependent hydrolysis of propionyl CoA | – | – | Kcat [2]: 1.85 s⁻¹ |
| B4 | – | survived the spraying procedure without signs of glyphosate damage | all GAT plants survived | % EVENTS @ 7-8 ([4]; 10 days after 2X glyphosate (1× = 26 ounces/acre), 7=minor leaf/stem discoloration): 15%; % EVENTS @ 3-6 ([4]; 10 days after 2X glyphosate, 5=worse discoloration, 3=severely discolored or dying): 11%; number of events @ 3-6 [4, 6]: 3; number of events @ 7-8 [4, 6]: 4 |
| B5 | – | – | – | effect of temperature on glyphosate tolerance [5]: glyphosate tolerance is not adversely effected by the range of temperatures tested |
| B6 | – | survived the spraying procedure without signs of glyphosate damage | all GAT plants survived | – |
